How the values were obtained:
[1] = tested on: T1, CGPLGLAGGERDGC (MMP9 substrate) peptide cross-linker as presented in MMP9-NANs
T1 sequence: CGPLGLAGGERDGC

[2] = tested on: T2, CGFLGC (cathepsin B substrate) peptide cross-linker as presented in CathB-NANs
T2 sequence: CGFLGC

Substance	dye release from pep-NAN at pH 7 (fluorescence assay) [1]	dye release from pep-NAN (fluorescence assay) [1]	dye release from pep-NAN at pH 5 (fluorescence monitoring) [1]	dye release from pep-NAN (fluorescence assay) [2]	time to comparable fluorescence change, relative to MMP9-NAN degradation by MMP9 [2]
MMP1	The results of these experiments indicated that the MMP9-NAN is specific to the MMP9 enzyme				
MMP2	The results of these experiments indicated that the MMP9-NAN is specific to the MMP9 enzyme				
MMP9 enzyme (matrix metalloproteinase 9)		MMP9-NANs and CathB-NANs released their dye when treated with their intended enzyme targets, MMP9 and cathepsin B, respectively	Exposure of MMP9-NANs to cathepsin B and MMP9 at pH 5 resulted in no observable change in fluorescence		
cathepsin B		Cathepsin B activity on MMP9-NANs was also evaluated, in which no fluorescence change was observed		MMP9-NANs and CathB-NANs released their dye when treated with their intended enzyme targets, MMP9 and cathepsin B, respectively	it takes ˜20× as long to see comparable fluorescence changes in solution when cathepsin B is added to a solution of CathB-NANs as compared to MMP9-NAN degradation by MMP9
